In patent US20250154548A1, “CONTROL OF ENZYMATIC NUCLEIC ACID SYNTHESIS VIA ELECTROCHEMICAL MEANS” (The Charles Stark Draper Laboratory, Inc., priority 2023, published 2025):

Assay: Proteinase K activity as a function of pH and after pH neutralization
Assay type: biochemical
Conditions: for recovery of proteinase K activity after neutralization: after exposure to highly acidic (pH 3.5) or basic (pH 12) conditions, neutralized to pH 7 to 7.5
From the text: FIGS. 1A-1C provide information on activating proteinase K at different pH conditions.
Another method of deblocking after nucleotide addition using a conjugated enzyme is to digest the protein around the extended DNA. Proteinase K (ProK) is a hydrolase that digests proteins at aliphatic and aromatic residues making it a broad-spectrum protease^1 that could be used to fully digest TdT releasing the extended DNA for the next round of addition. This enzymatic cleavage step could potentially be spatially controlled via an electrochemically driven pH change, as depicted in FIG. 1A. […] A voltage would then be applied to electrodes near the DNA site to be cleaved for the next addition. This would cause a shift in the pH near this active electrode that would re-activate ProK to digest nearby TdT molecules, deblocking the DNA for subsequent nucleotide addition. ProK has some natural pH sensitivity^1-2 and could be further engineered to shift the activity profile into a desirable pH range.

- recovery of proteinase K activity after neutralization: recovers
- recovery of proteinase K activity after neutralization (listed as ProK): activity can be recovered
- proteinase K activity (at pH 12.5): negligible activity
- proteinase K activity (relative to activity at pH 7.3) (below pH 5 and above pH 10): complete dropoff in activity
B1: Proteinase K: hydrolase that digests proteins at aliphatic and aromatic residues, a broad-spectrum protease (protein, UniProt P06873 106-384, looked up)
Proteinase K: AAQTNAPWGLARISSTSPGTSTYYYDESAGQGSCVYVIDTGIEASHPEFEGRAQMVKTYYYSSRDGNGHGTHCAGTVGSRTYGVAKKTQLFGVKVLDDNGSGQYSTIIAGMDFVASDKNNRNCPKGVVASLSLGGGYSSSVNSAAARLQSSGVMVAVAAGNNNADARNYSPASEPSVCTVGASDRYDRRSSFSNYGSVLDIFGPGTSILSTWIGGSTRSISGTSMATPHVAGLAAYLMTLGKTTAASACRYIADTANKGDLSNIPFGTVNLLAYNNYQA
